How the values were obtained:
[1] = target: T1, CD132 receptor (Sinobiological 10555-H08B) (UniProt P31785 23-254); assay: Biacore, steady-state model: CD127 immobilised, IgG4 alone injected, then CD132 at 31.25-500 nM; baseline of CD127 with CD132 in the absence of IL-7
T1 construct: bought; analyte in the Biacore CD132 assay; also called common gamma chain
T1 sequence (looked up): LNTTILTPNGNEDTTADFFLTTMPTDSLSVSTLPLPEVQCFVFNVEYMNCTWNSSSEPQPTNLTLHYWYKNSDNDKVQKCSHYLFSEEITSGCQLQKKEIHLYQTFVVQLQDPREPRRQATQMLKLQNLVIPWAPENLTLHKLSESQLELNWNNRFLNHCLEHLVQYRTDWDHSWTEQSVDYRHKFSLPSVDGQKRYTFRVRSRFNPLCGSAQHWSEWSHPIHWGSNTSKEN

[2] = target: T2, CD127 recombinant protein (Histidine tagged, Sino ref 10975-H08H) (UniProt P16871 21-239); assay: sandwich ELISA, PD-1 immobilised, molecule preincubated with His-tagged CD127, anti-His-biotin + streptavidin-peroxidase, 450 nm
T2 construct: bought; used in the CD127 sandwich ELISA; also called CD127 receptor; IL-7Ralpha; not shown: histidine tag
T2 sequence (looked up): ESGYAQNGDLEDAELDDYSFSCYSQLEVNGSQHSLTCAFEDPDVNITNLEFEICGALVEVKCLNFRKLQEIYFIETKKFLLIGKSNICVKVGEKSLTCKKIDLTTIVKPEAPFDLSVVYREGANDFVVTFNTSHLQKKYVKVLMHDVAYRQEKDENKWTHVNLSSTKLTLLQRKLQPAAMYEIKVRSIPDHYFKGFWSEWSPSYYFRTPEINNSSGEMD
Description: Colorimetry was determined at 450 nm using TMB substrate. […] C.
Colorimetry was determined at 450 nm using TMB substrate.

[3] = target: T3, biotinylated recombinant human PD-1 (human, UniProt Q15116 25-167, limits assumed, biotinylated (site not stated)); assay: competition ELISA: PD-L1 immobilised (competitor), biotinylated PD-1 at 0.6 µg/mL premixed with the molecule
T3 construct: used in solution in the PD-1/PD-L1 antagonist ELISA; also called PD-1 receptor

[4] = target: T4, recombinant human PD-1 (rPD1; Sino Biologicals, reference 10377-H08H) (human, UniProt Q15116 25-167); assay: ELISA: PD-1 immobilised, anti-human Fc peroxidase detection
T4 construct: bought; also called hPD1; PD-1 receptor
Description: A. PD-1 binding ELISA assay. Human recombinant PD-1 (rPD1) protein was immobilized, and antibodies were added at different concentrations. Revelation was performed with an anti-human Fc antibody coupled to peroxidase. Colorimetry was determined at 450 nm using TMB substrate. The anti PD-1 with 1 (anti PD-1*1 ▲ grey) or 2 anti PD-1 arms (anti PD-1*2 ◆) were tested as control. […] All constructions tested comprise a […] linker between the Fc and IL-7 domain.

T4 sequence (Q15116 25-167 limits assumed): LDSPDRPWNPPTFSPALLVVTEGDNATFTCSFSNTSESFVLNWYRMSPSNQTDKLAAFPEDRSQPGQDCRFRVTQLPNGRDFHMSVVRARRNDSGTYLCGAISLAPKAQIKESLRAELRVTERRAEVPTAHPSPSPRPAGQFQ
T3 sequence (Q15116 25-167 limits assumed): as above

B1: CD127 (Sinobiological, 10975-H03H-50) (receptor, UniProt P16871 21-239, looked up)
chain: ESGYAQNGDLEDAELDDYSFSCYSQLEVNGSQHSLTCAFEDPDVNITNLEFEICGALVEVKCLNFRKLQEIYFIETKKFLLIGKSNICVKVGEKSLTCKKIDLTTIVKPEAPFDLSVVYREGANDFVVTFNTSHLQKKYVKVLMHDVAYRQEKDENKWTHVNLSSTKLTLLQRKLQPAAMYEIKVRSIPDHYFKGFWSEWSPSYYFRTPEINNSSGEMD
notes: bought; immobilised on the CM5 chip in the Biacore assays; also called CD127 receptor
B1 was tested. Which Kd [1] did it give?
The Kd was 2500 nM.

B2: anti PD-1 W142H bifunctional molecule with an isotype IgG1m + YTE (grey circle; no label printed on the sheet, name taken from legend paragraph 41) (other)
heavy: QIQLVQSGSELKKPGASVKVSCKASGYTFTHYAMNWVRQAPGQGLEWMGWINTNTGEPTYAQGFTGRFVFSLDTSVSTAYLQISSLKAEDTAVYYCAREREPGMDNWGQGTLVTVSSASTKGPSVFPLAPSSKSTSGGTAALGCLVKDYFPEPVTVSWNSGALTSGVHTFPAVLQSSGLYSLSSVVTVPSSSLGTQTYICNVNHKPSNTKVDKKVEPKSCDKTHTCPPCPAPELLGGPSVFLFPPKPKDTLYITREPEVTCVVVDVSHEDPEVKFNWYVDGVEVHNAKTKPREEQYASTYRVVSVLTVLHQDWLNGKEYKCKVSNKALPAPIEKTISKAKGQPREPQVYTLPPSRDELTKNQVSLTCLVKGFYPSDIAVEWESNGQPENNYKTTPPVLDSDGSFFLYSKLTVDKSRWQQGNVFSCSVMHEALHNHYTQKSLSLSPGKGGGGSGGGGSGGGGSDCDIEGKDGKQYESVLMVSIDQLLDSMKEIGSNCLNNEFNFFKRHICDANKEGMFLFRAARKLRQFLKMNSTGDFDLHLLKVSEGTTILLNCTGQVKGRKPAALGEAQPTKSLEENKSLKEQKKLNDLCFLKRLLQEIKTCHNKILMGTKEH
light: DVVMTQSPLSLPVTLGQPASISCRSSQSLVHANTNTYLEWYQQRPGQSPRLLIYKVSNRFSGVPDRFSGSGSGTDFTLKISRVEAEDVGVYYCFQGTHVPNTFGQGTKLEIKRTVAAPSVFIFPPSDEQLKSGTASVVCLLNNFYPREAKVQWKVDNALQSGNSQESVTEQDSKDSTYSLSSTLTLSKADYEKHKVYACEVTHQGLSSPVTKSFNRGEC
notes: also called anti PD-1 IL-7 W142H IgG1m + YTE
With B2 as the binder, how does the “EC50 (read off the curve)” value [2] read?
Its value is about 0.05 µg/mL.

B3: anti-PD-1*1 (control construction, one anti PD-1 arm, devoid of IL-7 variant) (antibody, human IgG1, kappa, N297A)
heavy: QIQLVQSGSELKKPGASVKVSCKASGYTFTHYAMNWVRQAPGQGLEWMGWINTNTGEPTYAQGFTGRFVFSLDTSVSTAYLQISSLKAEDTAVYYCAREREPGMDNWGQGTLVTVSSASTKGPSVFPLAPSSKSTSGGTAALGCLVKDYFPEPVTVSWNSGALTSGVHTFPAVLQSSGLYSLSSVVTVPSSSLGTQTYICNVNHKPSNTKVDKKVEPKSCDKTHTCPPCPAPELLGGPSVFLFPPKPKDTLMISRTPEVTCVVVDVSHEDPEVKFNWYVDGVEVHNAKTKPREEQYASTYRVVSVLTVLHQDWLNGKEYKCKVSNKALPAPIEKTISKAKGQPREPQVYTLPPCRDELTKNQVSLWCLVKGFYPSDIAVEWESNGQPENNYKTTPPVLDSDGSFFLYSKLTVDKSRWQQGNVFSCSVMHEALHNHYTQKSLSLSPGK
chain: DKTHTCPPCPAPELLGGPSVFLFPPKPKDTLMISRTPEVTCVVVDVSHEDPEVKFNWYVDGVEVHNAKTKPREEQYASTYRVVSVLTVLHQDWLNGKEYKCKVSNKALPAPIEKTISKAKGQPREPQVYTLPPCRDELTKNQVSLWCLVKGFYPSDIAVEWESNGQPENNYKTTPPVLDSDGSFFLYSKLTVDKSRWQQGNVFSCSVMHEALHNHYTQKSLSLSPGK
light: DVVMTQSPLSLPVTLGQPASISCRSSQSLVHANTNTYLEWYQQRPGQSPRLLIYKVSNRFSGVPDRFSGSGSGTDFTLKISRVEAEDVGVYYCFQGTHVPNTFGQGTKLEIKRTVAAPSVFIFPPSDEQLKSGTASVVCLLNNFYPREAKVQWKVDNALQSGNSQESVTEQDSKDSTYSLSSTLTLSKADYEKHKVYACEVTHQGLSSPVTKSFNRGEC
notes: one-armed antibody, IgG1 N298A
Which EC50 [3] does the source give for B3 here?
Its EC50 is 5.01 nM.

What about the EC50 [4] of the same binder?
Its EC50 is 0.238 nM.

B4: anti-PD1*2 (control antibody without any IL7) (antibody, IgG4, V domains shown)
VH: QIQLVQSGSELKKPGASVKVSCKASGYTFTHYAMNWVRQAPGQGLEWMGWINTNTGEPTYAQGFTGRFVFSLDTSVSTAYLQISSLKAEDTAVYYCAREREPGMDNWGQGTLVTVSS
VL: DVVMTQSPLSLPVTLGQPASISCRSSQSLVHANTNTYLEWYQQRPGQSPRLLIYKVSNRFSGVPDRFSGSGSGTDFTLKISRVEAEDVGVYYCFQGTHVPNTFGQGTKLEIKR
notes: two anti PD-1 arms
Which EC50 [4] does the source give for B4 here?
Its EC50 is 0.021 nM.

Reference: patent publication US20230303648A1 (OSE IMMUNOTHERAPEUTICS, published 2023)
